Data set [1] deals with HeLa Kyoto. Put plainly: solubility change mitosis vs G1/S (difference of NP-40 vs SDS log2 ratios) (log2 ratio difference); higher = more soluble in mitosis.
The subject of data set [2] is HeLa Kyoto. The data set can be described thus: solubility in G1/S (NP-40 vs SDS abundance) (log2 ratio); higher = more soluble. The note with it: cell cycle stage: G1/S.
Data set [3] has as its system HeLa Kyoto. The data set can be described thus: melting temperature (median over replicates), in situ; higher = more thermally stable.
Data set [4] has as its system HeLa Kyoto. Put plainly: thermal stability score vs G1/S (z-score of summed log2 fold changes over temperatures); higher = more thermally stable than in G1/S.
[5] abbreviates: cell cycle stage: early G1 (4.5 h after nocodazole release).

The record followed here is the supplement of paper PMC5998384.
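For melting temperature (median over replicates), in situ in this document: HeLa Kyoto cells synchronized by double thymidine or nocodazole block, proteins quantified by TMT10plex mass spectrometry, three independent biological replicates.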
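For solubility change mitosis vs G1/S (difference of NP-40 vs SDS log2 ratios) in this document: synchronized HeLa Kyoto cells (double thymidine block for G1/S, nocodazole release for mitosis), protein amounts in NP-40 versus SDS lysates quantified by mass spectrometry, three biological replicates.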
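For solubility in G1/S (NP-40 vs SDS abundance) in this document: HeLa Kyoto cells arrested at G1/S by double thymidine block, proteins quantified by TMT10plex mass spectrometry in mild NP-40 versus SDS extracts, three biological replicates.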
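For thermal stability score vs G1/S (z-score of summed log2 fold changes over temperatures) in this document: synchronized HeLa Kyoto cells, proteins quantified by TMT10plex mass spectrometry, three biological replicates, mitosis taken 0.5 h after nocodazole release, G1/S directly after double thymidine block.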

Consider “MFRRPVLQVLRQFVRHESETTTSLVLERSLNRVHLLGRVGQDPVLRQVEGKNPVTIFSLATNEMWRSGDSEVYQLGDVSQKTTWHRISVFRPGLRDVAYQYVKKGSRIYLEGKIDYGEYMDKNNVRRQATTIIADNIIFLSDQTKEKE [SSBP1]”, for which, in data set [1], the “solubility change mitosis (log2)” value was 0.0149. Also, in data set [2], the “solubility in G1/S (log2)” value came to 0.0755. For the same substance, the melting temperature in data set [3] (cell cycle stage: G1/S) was 59.5 °C; in data set [3] (cell cycle stage: mitosis) it was 59.6 °C. Moreover, the results for the thermal stability score in data set [4] (setting [5]) and in data set [4] (cell cycle stage: mitosis) were 0.62 and -1.51, respectively.
In the case of “MGETMSKRLKLHLGGEAEMEERAFVNPFPDYEAAAGALLASGAAEETGCVRPPATTDEPGLPFHQDGKIIHNFIRRIQTKIKDLLQQMEEGLKTADPHDCSAYTGWTGIALLYLQLYRVTCDQTYLLRSLDYVKRTLRNLNGRRVTFLCGDAGPLAVGAVIYHKLRSDCESQECVTKLLQLQRSVVCQESDLPDELLYGRAGYLYALLYLNTEIGPGTVCESAIKEVVNAIIESGKTLSREERKTERCPLLYQWHRKQYVGAAHGMAGIYYMLMQPAAKVDQETLTEMVKPSIDYVRHKKFRSGNYPSSLSNETDRLVHWCHGAPGVIHMLMQAYKVFKEEKYLKEAMECSDVIWQRGLLRKGYGICHGTAGNGYSFLSLYRLTQDKKYLYRACKFAEWCLDYGAHGCRIPDRPYSLFEGMAGAIHFLSDVLGPETSRFPAFELDSSKRD [LANCL2]”, the “solubility change mitosis (log2)” value in data set [1] is -0.119. Moreover, the “solubility in G1/S (log2)” value in data set [2] was -0.0171. Besides, the results for the melting temperature in data set [3] (cell cycle stage: G1/S) and in data set [3] (cell cycle stage: mitosis) were 57.7 °C and 55.4 °C, respectively. The thermal stability score in data set [4] (setting [5]) was -0.346; in data set [4] (cell cycle stage: mitosis), -0.592.
For the substance “MAELTALESLIEMGFPRGRAEKALALTGNQGIEAAMDWLMEHEDDPDVDEPLETPLGHILGREPTSSEQGGLEGSGSAAGEGKPALSEEERQEQTKRMLELVAQKQREREEREEREALERERQRRRQGQELSAARQRLQEDEMRRAAEERRREKAEELAARQRVREKIERDKAERAKKYGGSVGSQPPPVAPEPGPVPSSPSQEPPTKREYDQCRIQVRLPDGTSLTQTFRAREQLAAVRLYVELHRGEELGGGQDPVQLLSGFPRRAFSEADMERPLQELGLVPSAVLIVAKKCPS [UBXN1]”, the “solubility change mitosis (log2)” value in data set [1] amounted to 0.313. For the same substance, in data set [2], the “solubility in G1/S (log2)” value was 0.608. In addition, the melting temperature was determined as 52.1 °C in data set [3] (cell cycle stage: G1/S) and 51.3 °C in data set [3] (cell cycle stage: mitosis). Moreover, the thermal stability score in data set [4] (setting [5]) was -1.73; in data set [4] (cell cycle stage: mitosis), -2.31.
On to “MENQVLTPHVYWAQRHRELYLRVELSDVQNPAISITENVLHFKAQGHGAKGDNVYEFHLEFLDLVKPEPVYKLTQRQVNITVQKKVSQWWERLTKQEKRPLFLAPDFDRWLDESDAEMELRAKEEERLNKLRLESEGSPETLTNLRKGYLFMYNLVQFLGFSWIFVNLTVRFCILGKESFYDTFHTVADMMYFCQMLAVVETINAAIGVTTSPVLPSLIQLLGRNFILFIIFGTMEEMQNKAVVFFVFYLWSAIEIFRYSFYMLTCIDMDWKVLTWLRYTLWIPLYPLGCLAEAVSVIQSIPIFNETGRFSFTLPYPVKIKVRFSFFLQIYLIMIFLGLYINFRHLYKQRRRRYGQKKKKIH [HACD3]”, for which the “solubility change mitosis (log2)” value in data set [1] is -0.00775. Besides, in data set [2], the “solubility in G1/S (log2)” value was -0.3. Besides, the melting temperature in data set [3] (cell cycle stage: G1/S) amounted to 53.8 °C; in data set [3] (cell cycle stage: mitosis), 53.9 °C. For the same substance, the thermal stability score in data set [4] (setting [5]) was -0.451; in data set [4] (cell cycle stage: mitosis), -1.3.
As for ZNF24, in data set [1], the “solubility change mitosis (log2)” value was 0.265. For the same substance, the “solubility in G1/S (log2)” value in data set [2] is -0.217. The melting temperature in data set [3] (cell cycle stage: mitosis) stood at 52.2 °C. The results for the thermal stability score in data set [4] (setting [5]) and in data set [4] (cell cycle stage: mitosis) were 1.15 and 1.78, respectively.
